Source: IntAct's records for PubMed 30354839

B1: RNA-binding protein FUS (Homo sapiens), P35637 (parent)
chain: MASNDYTQQATQSYGAYPTQPGQGYSQQSSQPYGQQSYSGYSQSTDTSGYGQSSYSSYGQSQNTGYGTQSTPQGYGSTGGYGSSQSSQSSYGQQSSYPGYGQQPAPSSTSGSYGSSSQSSSYGQPQSGSYSQQPSYGGQQQSYGQQQSYNPPQGYGQQNQYNSSSGGGGGGGGGGNYGQDQSSMSSGGGSGGGYGNQDQSGGGGSGGYGQQDRGGRGRGGSGGGGGGGGGGYNRSSGGYEPRGRGGGRGGRGGMGGSDRGGFNKFGGPRDQGSRHDSEQDNSDNNTIFVQGLGENVTIESVADYFKQIGIIKTNKKTGQPMINLYTDRETGKLKGEATVSFDDPPSAKAAIDWFDGKEFSGNPIKVSFATRRADFNRGGGNGRGGRGRGGPMGRGGYGGGGSGGGGRGGFPSGGGGGGGQQRAGDWKCPNPTCENMNFSWRNECNQCKAPKPDGPGGGPGGSHMGGNYGDDRRGGRGGYDRGGYRGRGGDRGGFRGGRGGGDRGGFGPGKMDSRGEHRQDRRERPY
B2: RNA-binding protein Raly (Homo sapiens), Q9UKM9 (parent)
chain: MSLKLQASNVTNKNDPKSINSRVFIGNLNTALVKKSDVETIFSKYGRVAGCSVHKGYAFVQYSNERHARAAVLGENGRVLAGQTLDINMAGEPKPDRPKGLKRAASAIYSGYIFDYDYYRDDFYDRLFDYRGRLSPVPVPRAVPVKRPRVTVPLVRRVKTNVPVKLFARSTAVTTSSAKIKLKSSELQAIKTELTQIKSNIDALLSRLEQIAAEQKANPDGKKKGDGGGAGGGGGGGGSGGGGSGGGGGGGSSRPPAPQENTTSEAGLPQGEARTRDDGDEEGLLTHSEEELEHSQDTDADDGALQ

Experiments:
raly_mouse Raly, Q64012 = variants of: B1; conditions: with raly_mouse Raly
raly_human RALY, Q9UKM9 = variants of: B1; conditions: with raly_human RALY
fus_human FUS, P35637 = variants of: B2; conditions: with fus_human FUS

raly_mouse Raly, Q64012, sequence (Q64012 whole entry): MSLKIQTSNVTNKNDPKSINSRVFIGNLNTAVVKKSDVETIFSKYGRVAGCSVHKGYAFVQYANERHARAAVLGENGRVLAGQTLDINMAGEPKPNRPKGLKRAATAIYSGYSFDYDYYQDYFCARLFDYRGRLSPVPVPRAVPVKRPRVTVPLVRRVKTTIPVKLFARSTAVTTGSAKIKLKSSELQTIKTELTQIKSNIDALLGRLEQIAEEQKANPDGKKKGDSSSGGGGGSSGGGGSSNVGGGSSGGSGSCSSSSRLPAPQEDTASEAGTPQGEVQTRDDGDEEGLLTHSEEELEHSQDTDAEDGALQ

Variant	effect of a mutation on the interaction (raly_mouse Raly, Q64012)	effect of a mutation on the interaction (raly_human RALY, Q9UKM9)	effect of a mutation on the interaction (fus_human FUS, P35637)
MASNDYTQQATQSYGAYPTQPGQGYSQQSSQPYGQQSYSGYSQSTDTSGYGQSSYSSYGQSQNTGYGTQSTPQGYGSTGGYGSSQSSQSSYGQQSSYPGYGQQPAPSSTSGSYGSSSQSSSYGQPQSGSYSQQPSYGGQQQSYGQQQSYNPPQGYGQQNQYNSSSGGGGGGGGGGNYGQDQSSMSSGGGSGGGYGNQDQSGGGGSGGYGQQDRGGRGRGGSGGGGGGGGGGYNRSSGGYEPRGRGGGRGGRGGMGGSDRGGFNKFGGPRDQGSRHDSEQDNSDNNTIFVQGLGENVTIESVADYFKQIGIIKTNKKTGQPMINLYTDRETGKLKGEATVSFDDPPSAKAAIDWFDGKEFSGNPIKVSFATRRADFNRGGGNGRGGRGRGGPMGRGGYGGGGSGGGGRGGFPSGGGGGGGQQRAGDWKCPNPTCENMNFSWRNECNQCKAPKPDGPGGGPGGSHMGGNYGDDRRGGRGGYDRGGYRGRGGDRGGFRGGRGGGDRGGFGPGKMDSRGEHRQDCRERPY [R521C]	with no effect	with no effect	–
MASNDYTQQATQSYGAYPTQPGQGYSQQSSQPYGQQSYSGYSQSTDTSGYGQSSYSSYGQSQNTGYGTQSTPQGYGSTGGYGSSQSSQSSYGQQSSYPGYGQQPAPSSTSGSYGSSSQSSSYGQPQSGSYSQQPSYGGQQQSYGQQQSYNPPQGYGQQNQYNSSSGGGGGGGGGGNYGQDQSSMSSGGGSGGGYGNQDQSGGGGSGGYGQQDRGGRGRGGSGGGGGGGGGGYNRSSGGYEPRGRGGGRGGRGGMGGSDRGGFNKFGGPRDQGSRHDSEQDNSDNNTIFVQGLGENVTIESVADYFKQIGIIKTNKKTGQPMINLYTDRETGKLKGEATVSFDDPPSAKAAIDWFDGKEFSGNPIKVSFATRRADFNRGGGNGRGGRGRGGPMGRGGYGGGGSGGGGRGGFPSGGGGGGGQQRAGDWKCPNPTCENMNFSWRNECNQCKAPKPDGPGGGPGGSHMGGNYGDDRRGGRGGYDRGGYRGRGGDRGGFRGGRGGGDRGGFGPGKMDSRGEHRQDHRERPY [R521H]	with no effect	with no effect	–
MASNDYTQQATQSYGAYPTQPGQGYSQQSSQPYGQQSYSGYSQSTDTSGYGQSSYSSYGQSQNTGYGTQSTPQGYGSTGGYGSSQSSQSSYGQQSSYPGYGQQPAPSSTSGSYGSSSQSSSYGQPQSGSYSQQPSYGGQQQSYGQQQSYNPPQGYGQQNQYNSSSGGGGGGGGGGNYGQDQSSMSSGGGSGGGYGNQDQSGGGGSGGYGQQDRGGRGRGGSGGGGGGGGGGYNRSSGGYEPRGRGGGRGGRGGMGGSDRGGFNKFGGPRDQGSRHDSEQDNSDNNTIFVQGLGENVTIESVADYFKQIGIIKTNKKTGQPMINLYTDRETGKLKGEATVSFDDPPSAKAAIDWFDGKEFSGNPIKVSFATRRADFNRGGGNGRGGRGRGGPMGRGGYGGGGSGGGGRGGFPSGGGGGGGQQRAGDWKCPNPTCENMNFSWRNECNQCKAPKPDGPGGGPGGSHMGGNYGDDRRGGRGGYDRGGYRGRGGDRGGFRGGRGGGDRGGFGPGKMDSRGEHRQDRRERLY [P525L]	with no effect	with no effect	–
P148A;R149A	–	–	with no effect
